Key:
[1] = target: Hcp (purified) (Acinetobacter baylyi); experiment: mass photometry
[2] = target: Hcp (purified) (Acinetobacter baylyi); experiment: flow-induced dispersion analysis
[3] = target: TagF, DyLight 488 labelled (Acinetobacter baylyi); experiment: flow-induced dispersion analysis

## Hcp (purified) (natural protein)
[1]
  percent of Hcp present as hexameric complex: > 93%
  stoichiometry N: 6
[2]
  stoichiometry N: 6
[3]
  Kd: 30.4 µM
